# Experimental data from patent US9677045B2, “Microorganisms and methods for production of 4-hydroxybutyrate, 1,4-butanediol and related compounds” (priority 2012, dated 2017).
# Read-outs that look alike come from different tables or passages of the source. Marks after values point to notes of the source that are not given here.
# T1: L(+)-lactate dehydrogenase from A. eutrophus (R. eutropha ldhA) (Cupriavidus necator, UniProt Q07251)
# T1 sequence (Q07251 1-349): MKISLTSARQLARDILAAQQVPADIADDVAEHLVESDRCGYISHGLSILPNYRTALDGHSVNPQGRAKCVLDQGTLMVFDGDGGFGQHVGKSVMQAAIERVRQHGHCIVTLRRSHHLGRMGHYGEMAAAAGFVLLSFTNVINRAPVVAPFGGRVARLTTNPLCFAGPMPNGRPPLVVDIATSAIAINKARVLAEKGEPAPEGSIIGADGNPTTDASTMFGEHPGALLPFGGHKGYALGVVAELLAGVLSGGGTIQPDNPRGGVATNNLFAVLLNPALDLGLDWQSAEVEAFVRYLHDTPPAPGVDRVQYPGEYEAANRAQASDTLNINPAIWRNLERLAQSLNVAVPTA
# What was measured:
# [1] = system: alcohol dehydrogenase from Brevibacterium sp KU; settings: oxidation of alcohols; activity of 2-phenylethanol taken as 100%; cited from earlier work
# [2] = system: alcohol dehydrogenase from Brevibacterium sp KU 1309; settings: reduction of carbonyl compounds; cited from earlier work
# [3] = target: T1, L(+)-lactate dehydrogenase from A. eutrophus (R. eutropha ldhA); settings: compared with that on pyruvate; cited from earlier work
# [4] = system: cytochrome oxidases from E. coli; settings: cited from earlier work; for Km: read-out: Km for O2
# [5] = cytoplasmic pH, typically 7.4; cited from earlier work
# [6] = system: 1,4-butanediol pathway
# Protocol: Ten mL micro-aerobic cultures were started by inoculating fresh minimal in vivo conversion medium (see below) containing the appropriate antibiotics with 1% of the first cultures.
# Microaerobic conditions were established by initially flushing capped anaerobic bottles with nitrogen for 5 minutes, then piercing the septum with an 18G needle following inoculation. The needle was kept in the bottle during growth to allow a small amount of air to enter the bottles. Protein expression was induced with 0.2 mM IPTG when the culture reached mid-log growth phase. This is considered: time=0 hr.
# [7] = system: NADH dehydrogenases and cytochrome oxidases; settings: aerobic growth, from Noguchi et al., 2004, cited from earlier work
# [8] = host strain ECKh-432 with pZS*13S plasmid, culture supernatant, micro-aerobic
molecule,measurement,setting,value
C[C@@H](CO)c1ccccc1 [(R)-2-Phenylpropanol],Relative Activity,[1],63 0%
"CCCCCCCCCCCCO [Sample 1-Dodecanol, 1-Dodecanol]",Relative Activity,[1],68 0%
"CC(C)O [Sample 2-Propanol, 2-Propanol]",Relative Activity,[1],54 0%
CC(C=O)c1ccccc1 (centres unmarked) [2-Phenylpropionaldehyde],Km,[2],864 µM
CCC(C)C(=O)C(=O)O (centres unmarked) [3-Methyl-2-oxovalerate],Activity (%) of L(+)-lactate dehydrogenase from A. eutrophus,[3],5.3%
cytochrome bd oxidase: E. coli cytochrome bd oxidase (cyd operon),Km,[4],0.01 µM
O=CCc1ccccc1 [Phenylacetaldehyde],Km,[2],261 µM
CCO [Ethanol],Relative Activity,[1],76 0%
CC(O)c1ccccc1 (centres unmarked) [1-Phenylethanol],Relative Activity,[1],46 0%
O=CC(=O)O [Glyoxylate],Activity (%) of L(+)-lactate dehydrogenase from A. eutrophus,[3],8.7%
CC(C)CC(=O)C(=O)O [4-Methyl-2-oxopentanoate],Activity (%) of L(+)-lactate dehydrogenase from A. eutrophus,[3],39.0%
"O=C1CCCO1 [GBL, γ-butyrolactone]",lactone/hydroxyacid equilibrium,[5],hydrolysis of the GBL lactone is favored
"cytochrome bo oxidase: E. coli cytochrome bo oxidase (cyo operon) (protein, UniProt P0ABJ1 25-315; P0ABI8 1-663; P0ABJ3 1-204; P0ABJ6 1-109, looked up) Cytochrome bo(3) ubiquinol … 1: CNSALLDPKGQIGLEQRSLILTAFGLMLIVVIPAILMAVGFAWKYRASNKDAKYSPNWSHSNKVEAVVWTVPILIIIFLAVLTWKTTHALEPSKPLAHDEKPITIEVVSMDWKWFFIYPEQGIATVNEIAFPANTPVYFKVTSNSVMNSFFIPRLGSQIYAMAGMQTRLHLIANEPGTYDGISASYSGPGFSGMKFKAIATPDRAAFDQWVAKAKQSPNTMSDMAAFEKLAAPSEYNQVEYFSNVKPDLFADVINKFMAHGKSMDMTQPEGEHSAHEGMEGMDMSHAESAH Cytochrome bo(3) ubiquinol … 2: MFGKLSLDAVPFHEPIVMVTIAGIILGGLALVGLITYFGKWTYLWKEWLTSVDHKRLGIMYIIVAIVMLLRGFADAIMMRSQQALASAGEAGFLPPHHYDQIFTAHGVIMIFFVAMPFVIGLMNLVVPLQIGARDVAFPFLNNLSFWFTVVGVILVNVSLGVGEFAQTGWLAYPPLSGIEYSPGVGVDYWIWSLQLSGIGTTLTGINFFVTILKMRAPGMTMFKMPVFTWASLCANVLIIASFPILTVTVALLTLDRYLGTHFFTNDMGGNMMMYINLIWAWGHPEVYILILPVFGVFSEIAATFSRKRLFGYTSLVWATVCITVLSFIVWLHHFFTMGAGANVNAFFGITTMIIAIPTGVKIFNWLFTMYQGRIVFHSAMLWTIGFIVTFSVGGMTGVLLAVPGADFVLHNSLFLIAHFHNVIIGGVVFGCFAGMTYWWPKAFGFKLNETWGKRAFWFWIIGFFVAFMPLYALGFMGMTRRLSQQIDPQFHTMLMIAASGAVLIALGILCLVIQMYVSIRDRDQNRDLTGDPWGGRTLEWATSSPPPFYNFAVVPHVHERDAFWEMKEKGEAYKKPDHYEEIHMPKNSGAGIVIAAFSTIFGFAMIWHIWWLAIVGFAGMIITWIVKSFDEDVDYYVPVAEIEKLENQHFDEITKAGLKNGN Cytochrome bo(3) ubiquinol … 3: MATDTLTHATAHAHEHGHHDAGGTKIFGFWIYLMSDCILFSILFATYAVLVNGTAGGPTGKDIFELPFVLVETFLLLFSSITYGMAAIAMYKNNKSQVISWLALTWLFGAGFIGMEIYEFHHLIVNGMGPDRSGFLSAFFALVGTHGLHVTSGLIWMAVLMVQIARRGLTSTNRTRIMCLSLFWHFLDVVWICVFTVVYLMGAM Cytochrome bo(3) ubiquinol … 4: MSHSTDHSGASHGSVKTYMTGFILSIILTVIPFWMVMTGAASPAVILGTILAMAVVQVLVHLVCFLHMNTKSDEGWNMTAFVFTVLIIAILVVGSIWIMWNLNYNMMMH",Km,[4],~1 µM
"GNM_720: car gene, carboxylic acid reductase from Nocardia iowensis (protein, listed as Nocardia iowensis) MAVDSPDERLQRRIAQLFAEDEQVKAARPLEAVSAAVSAPGMRLAQIAATVMAGYADRPAAGQRAFELNTDDATGRTSLRLLPRFETITYRELWQRVGEVAAAWHHDPENPLRAGDFVALLGFTSIDYATLDLADIHLGAVTVPLQASAAVSQLIAILTETSPRLLASTPEHLDAAVECLLAGTTPERLVVFDYHPEDDDQRAAFESARRRLADAGSLVIVETLDAVRARGRDLPAAPLFVPDTDDDPLALLIYTSGSTGTPKGAMYTNRLAATMWQGNSMLQGNSQRVGINLNYMPMSHIAGRISLFGVLARGGTAYFAAKSDMSTLFEDIGLVRPTEIFFVPRVCDMVFQRYQSELDRRSVAGADLDTLDREVKADLRQNYLGGRFLVAVVGSAPLAAEMKTFMESVLDLPLHDGYGSTEAGASVLLDNQIQRPPVLDYKLVDVPELGYFRTDRPHPRGELLLKAETTIPGYYKRPEVTAEIFDEDGFYKTGDIVAELEHDRLVYVDRRNNVLKLSQGEFVTVAHLEAVFASSPLIRQIFIYGSSERSYLLAVIVPTDDALRGRDTATLKSALAESIQRIAKDANLQPYEIPRDFLIETEPFTIANGLLSGIAKLLRPNLKERYGAQLEQMYTDLATGQADELLALRREAADLPVLETVSRAAKAMLGVASADMRPDAHFTDLGGDSLSALSFSNLLHEIFGVEVPVGVVVSPANELRDLANYIEAERNSGAKRPTFTSVHGGGSEIRAADLTLDKFIDARTLAAADSIPHAPVPAQTVLLTGANGYLGRFLCLEWLERLDKTGGTLICVVRGSDAAAARKRLDSAFDSGDPGLLEHYQQLAARTLEVLAGDIGDPNLGLDDATWQRLAETVDLIVHPAALVNHVLPYTQLFGPNVVGTAEIVRLAITARRKPVTYLSTVGVADQVDPAEYQEDSDVREMSAVRVVRESYANGYGNSKWAGEVLLREAHDLCGLPVAVFRSDMILAHSRYAGQLNVQDVFTRLILSLVATGIAPYSFYRTDADGNRQRAHYDGLPADFTAAAITALGIQATEGFRTYDVLNPYDDGISLDEFVDWLVESGHPIQRITDYSDWFHRFETAIRALPEKQRQASVLPLLDAYRNPCPAVRGAILPAKEFQAAVQTAKIGPEQDIPHLSAPLIDKYVSDLELLQLL",BDO formation in ECKh-432,[6],required for BDO formation
same,ETOHEnz (ethanol),[6]; [8],>LLOQ
same,GBL (gamma-butyrolactone),[6]; [8],0.07 mM
same,LA (lactate),[6]; [8],0.10 mM
same,SA (succinate),[6]; [8],0.00 mM
"Cytochrome bo (protein, UniProt P0ABJ1 25-315; P0ABI8 1-663; P0ABJ3 1-204; P0ABJ6 1-109, looked up) Cytochrome bo(3) ubiquinol … 1: CNSALLDPKGQIGLEQRSLILTAFGLMLIVVIPAILMAVGFAWKYRASNKDAKYSPNWSHSNKVEAVVWTVPILIIIFLAVLTWKTTHALEPSKPLAHDEKPITIEVVSMDWKWFFIYPEQGIATVNEIAFPANTPVYFKVTSNSVMNSFFIPRLGSQIYAMAGMQTRLHLIANEPGTYDGISASYSGPGFSGMKFKAIATPDRAAFDQWVAKAKQSPNTMSDMAAFEKLAAPSEYNQVEYFSNVKPDLFADVINKFMAHGKSMDMTQPEGEHSAHEGMEGMDMSHAESAH Cytochrome bo(3) ubiquinol … 2: MFGKLSLDAVPFHEPIVMVTIAGIILGGLALVGLITYFGKWTYLWKEWLTSVDHKRLGIMYIIVAIVMLLRGFADAIMMRSQQALASAGEAGFLPPHHYDQIFTAHGVIMIFFVAMPFVIGLMNLVVPLQIGARDVAFPFLNNLSFWFTVVGVILVNVSLGVGEFAQTGWLAYPPLSGIEYSPGVGVDYWIWSLQLSGIGTTLTGINFFVTILKMRAPGMTMFKMPVFTWASLCANVLIIASFPILTVTVALLTLDRYLGTHFFTNDMGGNMMMYINLIWAWGHPEVYILILPVFGVFSEIAATFSRKRLFGYTSLVWATVCITVLSFIVWLHHFFTMGAGANVNAFFGITTMIIAIPTGVKIFNWLFTMYQGRIVFHSAMLWTIGFIVTFSVGGMTGVLLAVPGADFVLHNSLFLIAHFHNVIIGGVVFGCFAGMTYWWPKAFGFKLNETWGKRAFWFWIIGFFVAFMPLYALGFMGMTRRLSQQIDPQFHTMLMIAASGAVLIALGILCLVIQMYVSIRDRDQNRDLTGDPWGGRTLEWATSSPPPFYNFAVVPHVHERDAFWEMKEKGEAYKKPDHYEEIHMPKNSGAGIVIAAFSTIFGFAMIWHIWWLAIVGFAGMIITWIVKSFDEDVDYYVPVAEIEKLENQHFDEITKAGLKNGN Cytochrome bo(3) ubiquinol … 3: MATDTLTHATAHAHEHGHHDAGGTKIFGFWIYLMSDCILFSILFATYAVLVNGTAGGPTGKDIFELPFVLVETFLLLFSSITYGMAAIAMYKNNKSQVISWLALTWLFGAGFIGMEIYEFHHLIVNGMGPDRSGFLSAFFALVGTHGLHVTSGLIWMAVLMVQIARRGLTSTNRTRIMCLSLFWHFLDVVWICVFTVVYLMGAM Cytochrome bo(3) ubiquinol … 4: MSHSTDHSGASHGSVKTYMTGFILSIILTVIPFWMVMTGAASPAVILGTILAMAVVQVLVHLVCFLHMNTKSDEGWNMTAFVFTVLIIAILVVGSIWIMWNLNYNMMMH",Vmax,"[4]; from Bekker et al., 2009",225^c mol O/mol cytochrome bd/s
"NDH-2 (protein, UniProt P00393 2-434, looked up) Type II NADH:quinone …: TTPLKKIVIVGGGAGGLEMATQLGHKLGRKKKAKITLVDRNHSHLWKPLLHEVATGSLDEGVDALSYLAHARNHGFQFQLGSVIDIDREAKTITIAELRDEKGELLVPERKIAYDTLVMALGSTSNDFNTPGVKENCIFLDNPHQARRFHQEMLNLFLKYSANLGANGKVNIAIVGGGATGVELSAELHNAVKQLHSYGYKGLTNEALNVTLVEAGERILPALPPRISAAAHNELTKLGVRVLTQTMVTSADEGGLHTKDGEYIEADLMVWAAGIKAPDFLKDIGGLETNRINQLVVEPTLQTTRDPDIYAIGDCASCPRPEGGFVPPRAQAAHQMATCAMNNILAQMNGKPLKNYQYKDHGSLVSLSNFSTVGSLMGNLTRGSMMIEGRIARFVYISLYRMHQIALHGYFKTGLMMLVGSINRVIRPRLKLH",Concentrations of NADH dehydrogenases and cytochrome oxidase,[7]; Limited glucose (early stationary),0.70 ± 0.03 μmol/s/mg of protein
same,Concentrations of NADH dehydrogenases and cytochrome oxidase,[7]; Standard glucose (early stationary: 8 h),0.88 ± 0.01 μmol/s/mg of protein
same,Concentrations of NADH dehydrogenases and cytochrome oxidase,[7]; Standard glucose (exponential: 3 h),1.11 ± 0.06 μmol/s/mg of protein
same,Concentrations of NADH dehydrogenases and cytochrome oxidase,[7]; Standard glucose (exponential: 5 h),0.86 ± 0.03 μmol/s/mg of protein
